Assay results reported in patent US20110105397A1, “METHOD FOR TREATING HEART FAILURE WITH STRESSCOPIN-LIKE PEPTIDES” (priority 2009, published 2011).
Where “and” joins values, the source holds several entries; their conditions need not be identical. Equal values may be shown once. Read-outs that look alike come from different tables or passages of the source. Values belong to the compound of their own block, whether it stands above or below them. Where a SMILES comes first, the peptide text is derived from it. Where no end group is shown, it is not given here. Side-chain parts run from the residue outwards. The star is where a group is joined. acetamide = acetamide linker between the Cys residue and the PEG; Succinimide(1-Et,3-yl) = CCN1C(=O)CC(*)C1=O

Legend:
human CRHR2 = molecular target: T1, human CRHR2 (Homo sapiens, UniProt Q13324); experiment: cAMP assay, h-CRHR2 transfected SK-N-MC cells; type: cell-based; settings: for EC50: read-out: pA50 (converted); for Log DR [M]: h-SCP control pA50 minus test compound pA50 within the same assay batch
T1 construct: expressed in transfected cells
T1 sequence (Q13324 1-411): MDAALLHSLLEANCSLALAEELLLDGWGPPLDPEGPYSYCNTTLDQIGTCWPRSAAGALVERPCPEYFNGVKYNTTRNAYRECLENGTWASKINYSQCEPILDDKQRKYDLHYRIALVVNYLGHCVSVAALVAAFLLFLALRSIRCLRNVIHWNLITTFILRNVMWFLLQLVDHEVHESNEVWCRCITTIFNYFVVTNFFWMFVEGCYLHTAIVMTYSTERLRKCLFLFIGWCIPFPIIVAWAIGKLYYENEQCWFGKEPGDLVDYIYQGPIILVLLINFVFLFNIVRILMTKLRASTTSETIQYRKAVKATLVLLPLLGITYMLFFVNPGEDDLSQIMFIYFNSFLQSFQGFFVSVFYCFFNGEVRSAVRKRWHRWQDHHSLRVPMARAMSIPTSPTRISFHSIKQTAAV
Method in brief: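 Intracellular cAMP was quantified by radioligand competition against a cAMP standard curve after HCl lysis of h-CRHR2-transfected SK-N-MC cells. These cells had been exposed to peptides from 1 pM to 1 μM for 1 h at 37 °C with IBMX. Responses were scaled to the daily h-SCP maximum and fitted to the Hill equation to give A50/pA50.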

[1] = Nonclinical pharmacokinetics in dogs; set-up: species or system dog; settings: dog, in vivo
Procedure: (§1) A sandwich immunoassay was developed using an affinity purified goat polyclonal antibody, specific to h-SCP that was pre-coated onto a microplate with integrated electrodes. h-SCP molecules present in the sample will bind to the capture polyclonal antibody coated on the plate. After washing away any unbound substances, a sulfo-tagged mouse monoclonal anti-h-SCP antibody was added. This conjugated antibody will bind to the h-SCP molecules captured on the microplate and the quantity of analyte was determined by electrochemiluminescence. The amount of signal generated is directly proportional to the h-SCP concentration in the sample or standard. The standard curve range is 3.125-1600 pg/mL with a quantifiable range from 10-800 pg/mL. A sample volume of 25 μL (in duplicate) is required for this assay. This immunoassay is specific for human and dog stresscopin and human urocortin III (h-UCN3). […] After completion of the analysis, based on a comparison of reference standards between the ELISA and HPLC method, a correction factor of 1.57 was applied to all bioanalytical data.
(§2) The nonclinical pharmacokinetics of h-SCP (SEQ ID NO:1) and pegylated stresscopin-like peptides were studied in rats, dogs, and cynomolgus monkeys (cyno). Nonclinical pharmacokinetic studies focused on characterization of IV infusion at pharmacologically relevant dose levels, supplemented with IV and SC bolus and toxicokinetic analysis.

HF dogs = experiment: Single SC bolus injection in HF dogs; type: in vivo, dog
Procedure: After reaching a steady state plasma concentration, the heart rate remained fairly stable. […] The target plasma concentration of about 60 ng/mL is reached in about 2 hours and 10 minutes after the time point of injection, then leveling off at about 100 ng/mL after about 3, still maintaining its level at about 6 hours after injection. The stresscopin-relative concentration of 60 ng/mL and of 100 ng/mL of a SEQ ID NO:102 peptide is 600 pg/mL and 1000 pg/mL, respectively.

[2] = Nonclinical pharmacokinetics in rats; set-up: species or system rat; settings: rat, in vivo; for % F (Bioavailability) / AUC0-∞ / Tmax: sc
Procedure: as §1, §2

[3] = Table 13, cysteine mutation, N-ethylmaleimide capping, pegylation

- pA50 in the presence of anti-sauvagine-30 (human CRHR2; 100 nM anti-sauvagine-30, maximal response constrained to 100%): ~6.89
- agonist potency ratio to stresscopin of SEQ ID NO:1 reduced by a factor (human CRHR2; 10^(9.40-8.15)): 17.78
- nH (human CRHR2; Table 14): 1.05
- pA50 (human CRHR2; Table 14): 8.15
- αmax (human CRHR2; Table 14, % of the maximum response obtained to h-SCP): 111.1%
Compound: TKFTLSLDVPTNIMNLLFNIAKAKNLRC(-IA-PEG MW20000)QA AANAH LMAQI-NH2 (TKFTLSLDVPTNIMNLLFNIAKAKNLRC([acetamide-PEG 20 kDa])QAAANAHLMAQI-NH2) [SEQ ID NO: 102]
- Vz (volume of distribution) ([1]; iv, 15 ug/kg): 34 ± 7 mL/kg
- % F (Bioavailability) ([1]; sc, 5 ug/kg): 71%
- AUC0-∞ ([1]; sc, 5 ug/kg): 3510 ± 270 ng·h/mL
- Cmax ([1]; sc, 5 ug/kg): 24.6 ± 2.6 ng/mL
- Tmax ([1]; sc, 5 ug/kg): 32 ± 8 h
- % F (Bioavailability) ([1]; sc, 15 ug/kg): 41%
- AUC0-∞ ([1]; sc, 15 ug/kg): 6089 ± 1808 ng·h/mL
- Tmax ([1]; sc, 15 ug/kg): 5 ± 1 h
- heart rate (HF dogs; HF dogs, bolus SC injection 30 μg/kg): declined over the first few hours
- LVEF and CO performance (HF dogs; HF dogs, bolus SC injection 30 μg/kg, up to 4 hours): significantly increased
- stresscopin-relative concentration (HF dogs; of 60 ng/mL of SEQ ID NO:102 peptide): 600 pg/mL
- stresscopin-relative concentration (HF dogs; of 100 ng/mL of SEQ ID NO:102 peptide): 1000 pg/mL
- Vz (volume of distribution) ([2]; iv, 15 ug/kg): 510 ± 23 mL/kg
- % F (Bioavailability) ([2]; 15 ug/kg): 36%
- AUC0-∞ ([2]; 15 ug/kg): 342 ± 107 ng·h/mL
- Tmax ([2]; 15 ug/kg): 7 ± 1 h
- % F (Bioavailability) ([2]; 150 ug/kg): 20%
- AUC0-∞ ([2]; 150 ug/kg): 1914 ± 464 ng·h/mL
- Tmax ([2]; 150 ug/kg): 6.3 ± 1.8 h

- EC50 (human CRHR2; [3]): 1.78 nM
- Log DR [M] (human CRHR2; Table 13): 0.77
Compound: TKFTLSLDVPTNIMNLLFNCAKAKNLRAQAAANAHLMAQI-NH2 [SEQ ID NO: 21, TKFTLSLDVPTNIMNLLFNCAKAKNLRAQAAANAHLMAQI-NH2]

- EC50 (human CRHR2; [3]): 2.09 nM
- Log DR [M] (human CRHR2; Table 13): 0.90
Compound: TKFTLSLDVPTNICNLLFNIAKAKNLRAQAAANAHLMAQI-NH2 [SEQ ID NO: 15, TKFTLSLDVPTNICNLLFNIAKAKNLRAQAAANAHLMAQI-NH2]

- EC50 (human CRHR2; [3]): 0.437 nM
- Log DR [M] (human CRHR2; Table 13): 0.11
Compound: CC[C@H](C)[C@H](NC(=O)[C@H](CCC(N)=O)NC(=O)[C@H](C)NC(=O)[C@H](CCSC)NC(=O)[C@H](CC(C)C)NC(=O)[C@H](Cc1c[nH]cn1)NC(=O)[C@H](C)NC(=O)[C@H](CC(N)=O)NC(=O)[C@H](C)NC(=O)[C@H](C)NC(=O)[C@H](C)NC(=O)[C@H](CCC(N)=O)NC(=O)[C@H](C)NC(=O)[C@H](CCCNC(=N)N)NC(=O)[C@H](CC(C)C)NC(=O)[C@H](CSC1CC(=O)N(CC)C1=O)NC(=O)[C@H](CCCCN)NC(=O)[C@H](C)NC(=O)[C@H](CCCCN)NC(=O)[C@H](C)NC(=O)[C@@H](NC(=O)[C@H](CC(N)=O)NC(=O)[C@H](Cc1ccccc1)NC(=O)[C@H](CC(C)C)NC(=O)[C@H](CC(C)C)NC(=O)[C@H](CC(N)=O)NC(=O)[C@H](CCSC)NC(=O)[C@@H](NC(=O)[C@H](CC(N)=O)NC(=O)[C@@H](NC(=O)[C@@H]1CCCN1C(=O)[C@@H](NC(=O)[C@H](CC(=O)O)NC(=O)[C@H](CC(C)C)NC(=O)[C@H](CO)NC(=O)[C@H](CC(C)C)NC(=O)[C@@H](NC(=O)[C@H](Cc1ccccc1)NC(=O)[C@H](CCCCN)NC(=O)[C@@H](N)[C@@H](C)O)[C@@H](C)O)C(C)C)[C@@H](C)O)[C@@H](C)CC)[C@@H](C)CC)C(N)=O (some centres unmarked) [SEQ ID NO: 49, TKFTLSLDVPTNIMNLLFNIAKAKC(-NES) LRAQA AANAH LMAQI-NH2] (H-TKFTLSLDVPTNIMNLLFNIAKAKC(Succinimide(1-Et,3-yl))LRAQAAANAHLMAQI-NH2; N-terminus assumed)

- EC50 (human CRHR2; [3]): 0.676 nM
- Log DR [M] (human CRHR2; Table 13): 0.52
Compound: TKFTLSLDVPTNIMNLLFNICKAKNLRAQAAANAHLMAQI-NH2 [SEQ ID NO: 22, TKFTLSLDVPTNIMNLLFNICKAKNLRAQAAANAHLMAQI-NH2]

Compound: LSLDVPTNIMNLLFNIAKAKNLRAQAAANAHLMAQI-NH2 [SEQ ID NO: 109, LSLDVPTNIMNLLFNIAKAKNLRAQAAANAHLMAQI-NH2]
- nH (human CRHR2; Table 12): 0.74
- EC50 (human CRHR2; Table 12, amidation and N-terminal deletions, normalized to maximum response to h-SCP, 3-5 replicate experiments): 46.8 nM and 45.7 nM
- αmax (human CRHR2; Table 12, normalized to the maximum response to h-SCP): 109.6
